Experimental data published in publication PMC3654694 (Immunity, 2012).
Where two headings read alike, the source gives them in different places.

T1: STING CTD (STINGΔ1-138, AA139-379), His-tag removed (human), Q86WV6
T1 chain: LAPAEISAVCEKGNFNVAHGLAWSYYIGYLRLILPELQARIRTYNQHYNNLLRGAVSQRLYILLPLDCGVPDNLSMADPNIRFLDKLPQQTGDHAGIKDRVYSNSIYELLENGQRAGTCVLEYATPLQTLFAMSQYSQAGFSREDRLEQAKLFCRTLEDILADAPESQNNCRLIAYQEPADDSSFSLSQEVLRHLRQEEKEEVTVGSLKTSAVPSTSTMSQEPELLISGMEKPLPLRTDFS

T2: STING CTD WT (AA139-379) with His-tag (human), Q86WV6
T2 chain: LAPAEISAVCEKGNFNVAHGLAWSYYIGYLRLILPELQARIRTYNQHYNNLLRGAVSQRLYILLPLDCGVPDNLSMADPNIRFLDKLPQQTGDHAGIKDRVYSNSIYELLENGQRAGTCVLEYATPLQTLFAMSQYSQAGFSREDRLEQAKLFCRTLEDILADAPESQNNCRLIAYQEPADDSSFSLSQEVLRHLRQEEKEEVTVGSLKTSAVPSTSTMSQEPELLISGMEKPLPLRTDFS


Legend:
[1] = biological target: T1, STING CTD (STINGΔ1-138, AA139-379), …; assay: AUC; conditions: remark: other sources report otherwise
[2] = biological target: the molecule itself; assay: SEC
[3] = biological target: T2, STING CTD WT (AA139-379) with His-tag …; assay: SEC; conditions: remark: other sources report otherwise
[4] = biological target: the molecule itself

Row | Binder | stoichiometry N [2] | other results
1 | STING CTD (STINGΔ1-138, AA139-379), His-tag removed, Q86WV6 139-379 (domain or fragment) LAPAEISAVCEKGNFNVAHGLAWSYYIGYLRLILPELQARIRTYNQHYNNLLRGAVSQRLYILLPLDCGVPDNLSMADPNIRFLDKLPQQTGDHAGIKDRVYSNSIYELLENGQRAGTCVLEYATPLQTLFAMSQYSQAGFSREDRLEQAKLFCRTLEDILADAPESQNNCRLIAYQEPADDSSFSLSQEVLRHLRQEEKEEVTVGSLKTSAVPSTSTMSQEPELLISGMEKPLPLRTDFS |  | stoichiometry N [1]: 2
2 | STING CTD K150R (domain or fragment, human, UniProt Q86WV6 139-379, looked up) LAPAEISAVCERGNFNVAHGLAWSYYIGYLRLILPELQARIRTYNQHYNNLLRGAVSQRLYILLPLDCGVPDNLSMADPNIRFLDKLPQQTGDHAGIKDRVYSNSIYELLENGQRAGTCVLEYATPLQTLFAMSQYSQAGFSREDRLEQAKLFCRTLEDILADAPESQNNCRLIAYQEPADDSSFSLSQEVLRHLRQEEKEEVTVGSLKTSAVPSTSTMSQEPELLISGMEKPLPLRTDFS | 2 | 
3 | STING CTD K150L (domain or fragment, human, UniProt Q86WV6 139-379, looked up) LAPAEISAVCELGNFNVAHGLAWSYYIGYLRLILPELQARIRTYNQHYNNLLRGAVSQRLYILLPLDCGVPDNLSMADPNIRFLDKLPQQTGDHAGIKDRVYSNSIYELLENGQRAGTCVLEYATPLQTLFAMSQYSQAGFSREDRLEQAKLFCRTLEDILADAPESQNNCRLIAYQEPADDSSFSLSQEVLRHLRQEEKEEVTVGSLKTSAVPSTSTMSQEPELLISGMEKPLPLRTDFS | 2 | 
4 | STING CTD K150A (domain or fragment, human, UniProt Q86WV6 139-379, looked up) LAPAEISAVCEAGNFNVAHGLAWSYYIGYLRLILPELQARIRTYNQHYNNLLRGAVSQRLYILLPLDCGVPDNLSMADPNIRFLDKLPQQTGDHAGIKDRVYSNSIYELLENGQRAGTCVLEYATPLQTLFAMSQYSQAGFSREDRLEQAKLFCRTLEDILADAPESQNNCRLIAYQEPADDSSFSLSQEVLRHLRQEEKEEVTVGSLKTSAVPSTSTMSQEPELLISGMEKPLPLRTDFS | 2 | 
5 | STING CTD WT (AA139-379) with His-tag, Q86WV6 139-379 (domain or fragment) LAPAEISAVCEKGNFNVAHGLAWSYYIGYLRLILPELQARIRTYNQHYNNLLRGAVSQRLYILLPLDCGVPDNLSMADPNIRFLDKLPQQTGDHAGIKDRVYSNSIYELLENGQRAGTCVLEYATPLQTLFAMSQYSQAGFSREDRLEQAKLFCRTLEDILADAPESQNNCRLIAYQEPADDSSFSLSQEVLRHLRQEEKEEVTVGSLKTSAVPSTSTMSQEPELLISGMEKPLPLRTDFS |  | stoichiometry N [3]: 2
6 | STINGΔ1-148 (AA149-379) (domain or fragment, human, UniProt Q86WV6 149-379, looked up) EKGNFNVAHGLAWSYYIGYLRLILPELQARIRTYNQHYNNLLRGAVSQRLYILLPLDCGVPDNLSMADPNIRFLDKLPQQTGDHAGIKDRVYSNSIYELLENGQRAGTCVLEYATPLQTLFAMSQYSQAGFSREDRLEQAKLFCRTLEDILADAPESQNNCRLIAYQEPADDSSFSLSQEVLRHLRQEEKEEVTVGSLKTSAVPSTSTMSQEPELLISGMEKPLPLRTDFS |  | stoichiometry N [4]: 2
